Assay results published in patent US20260184748A1 (University of Pennsylvania, published 2026).
Where no end group is shown, it is not given here.

Columns and labels:
Assay in all cases: cell-based or functional assay
[1] = molecular target: T1, AGTR1 (UniProt P30556 1-359)
T1 sequence (looked up): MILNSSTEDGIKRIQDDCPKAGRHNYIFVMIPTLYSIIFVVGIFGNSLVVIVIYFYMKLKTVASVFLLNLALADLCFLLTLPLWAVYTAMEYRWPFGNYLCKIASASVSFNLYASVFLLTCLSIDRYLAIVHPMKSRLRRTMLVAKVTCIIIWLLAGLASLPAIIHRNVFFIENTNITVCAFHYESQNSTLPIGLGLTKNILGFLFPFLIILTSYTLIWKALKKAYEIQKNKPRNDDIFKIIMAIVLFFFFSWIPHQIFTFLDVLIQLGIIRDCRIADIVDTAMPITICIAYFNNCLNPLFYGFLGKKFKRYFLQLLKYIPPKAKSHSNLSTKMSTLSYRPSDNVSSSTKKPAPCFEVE

[2] = molecular target: P2RY4 (UniProt P51582 1-365)
Chain of P2RY4 (P51582 whole entry): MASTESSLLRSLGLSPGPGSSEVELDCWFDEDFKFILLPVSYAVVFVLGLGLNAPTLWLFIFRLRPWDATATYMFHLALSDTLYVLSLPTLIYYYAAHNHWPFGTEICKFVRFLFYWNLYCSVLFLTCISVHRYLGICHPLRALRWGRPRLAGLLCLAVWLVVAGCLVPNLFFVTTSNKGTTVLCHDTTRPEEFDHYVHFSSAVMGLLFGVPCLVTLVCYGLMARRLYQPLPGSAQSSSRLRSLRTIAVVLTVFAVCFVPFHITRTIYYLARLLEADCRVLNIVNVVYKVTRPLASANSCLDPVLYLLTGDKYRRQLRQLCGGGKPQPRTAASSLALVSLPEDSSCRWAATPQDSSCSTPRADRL

[3] = molecular target: T2, ADORA3 (UniProt P0DMS8 1-318)
T2 sequence (looked up): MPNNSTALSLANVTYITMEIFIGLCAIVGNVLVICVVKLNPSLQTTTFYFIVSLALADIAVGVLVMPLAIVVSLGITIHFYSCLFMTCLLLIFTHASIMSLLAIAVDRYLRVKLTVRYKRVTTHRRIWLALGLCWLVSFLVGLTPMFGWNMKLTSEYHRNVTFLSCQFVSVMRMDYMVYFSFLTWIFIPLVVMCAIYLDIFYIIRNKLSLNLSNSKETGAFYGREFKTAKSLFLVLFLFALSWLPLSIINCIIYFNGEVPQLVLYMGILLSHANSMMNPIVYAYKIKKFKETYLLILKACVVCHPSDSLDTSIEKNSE

[4] = molecular target: T3, CHRM2 (UniProt P08172 1-466)
T3 sequence (looked up): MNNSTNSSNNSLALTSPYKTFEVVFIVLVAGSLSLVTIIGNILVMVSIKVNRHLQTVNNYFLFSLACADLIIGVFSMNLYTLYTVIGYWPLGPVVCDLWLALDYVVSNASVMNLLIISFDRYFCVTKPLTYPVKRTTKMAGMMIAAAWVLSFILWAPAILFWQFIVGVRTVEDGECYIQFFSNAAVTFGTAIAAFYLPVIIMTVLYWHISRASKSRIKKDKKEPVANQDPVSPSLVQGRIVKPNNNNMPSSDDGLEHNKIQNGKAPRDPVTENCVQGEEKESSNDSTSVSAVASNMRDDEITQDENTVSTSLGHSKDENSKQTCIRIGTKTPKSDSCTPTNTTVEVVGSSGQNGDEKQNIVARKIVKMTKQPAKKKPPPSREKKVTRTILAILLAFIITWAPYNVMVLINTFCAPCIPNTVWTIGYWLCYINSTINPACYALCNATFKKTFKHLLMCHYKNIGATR

[5] = molecular target: T4, CXCR1 (UniProt P25024 1-350)
T4 sequence (looked up): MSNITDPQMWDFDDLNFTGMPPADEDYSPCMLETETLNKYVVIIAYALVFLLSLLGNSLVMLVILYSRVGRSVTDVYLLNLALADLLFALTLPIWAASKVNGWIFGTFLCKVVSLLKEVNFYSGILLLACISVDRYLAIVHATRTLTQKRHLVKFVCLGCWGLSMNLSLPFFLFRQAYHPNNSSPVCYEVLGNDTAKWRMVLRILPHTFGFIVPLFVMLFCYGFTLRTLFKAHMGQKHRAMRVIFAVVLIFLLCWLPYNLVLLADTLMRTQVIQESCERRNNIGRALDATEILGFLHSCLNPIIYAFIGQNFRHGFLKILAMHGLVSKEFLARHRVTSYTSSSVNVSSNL

[6] = molecular target: DRD3 (UniProt P35462 1-400)
Chain of DRD3 (P35462 whole entry): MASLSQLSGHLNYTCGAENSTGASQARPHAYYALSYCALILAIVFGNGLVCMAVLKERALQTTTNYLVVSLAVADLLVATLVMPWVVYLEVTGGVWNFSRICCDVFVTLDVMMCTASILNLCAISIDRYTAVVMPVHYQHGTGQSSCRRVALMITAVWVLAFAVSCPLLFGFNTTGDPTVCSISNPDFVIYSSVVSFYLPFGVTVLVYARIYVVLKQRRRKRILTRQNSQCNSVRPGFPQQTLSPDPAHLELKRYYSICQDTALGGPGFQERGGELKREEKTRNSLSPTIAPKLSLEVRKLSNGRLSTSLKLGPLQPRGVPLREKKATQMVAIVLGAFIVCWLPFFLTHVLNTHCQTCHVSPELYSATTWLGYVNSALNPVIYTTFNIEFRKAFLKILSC

[7] = molecular target: T5, GALR1 (UniProt P47211 1-349)
T5 sequence (looked up): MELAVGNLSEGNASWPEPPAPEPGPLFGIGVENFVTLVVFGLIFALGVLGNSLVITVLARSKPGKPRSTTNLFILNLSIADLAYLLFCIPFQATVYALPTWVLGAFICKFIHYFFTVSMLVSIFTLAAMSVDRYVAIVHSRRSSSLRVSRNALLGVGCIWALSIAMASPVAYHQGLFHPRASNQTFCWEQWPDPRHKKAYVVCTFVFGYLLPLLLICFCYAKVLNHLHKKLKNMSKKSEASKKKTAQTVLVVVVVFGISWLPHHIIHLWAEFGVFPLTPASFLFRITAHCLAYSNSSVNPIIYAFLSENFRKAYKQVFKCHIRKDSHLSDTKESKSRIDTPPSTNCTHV

[8] = molecular target: GPR109B (UniProt P49019 1-387)
Chain of GPR109B (P49019 whole entry): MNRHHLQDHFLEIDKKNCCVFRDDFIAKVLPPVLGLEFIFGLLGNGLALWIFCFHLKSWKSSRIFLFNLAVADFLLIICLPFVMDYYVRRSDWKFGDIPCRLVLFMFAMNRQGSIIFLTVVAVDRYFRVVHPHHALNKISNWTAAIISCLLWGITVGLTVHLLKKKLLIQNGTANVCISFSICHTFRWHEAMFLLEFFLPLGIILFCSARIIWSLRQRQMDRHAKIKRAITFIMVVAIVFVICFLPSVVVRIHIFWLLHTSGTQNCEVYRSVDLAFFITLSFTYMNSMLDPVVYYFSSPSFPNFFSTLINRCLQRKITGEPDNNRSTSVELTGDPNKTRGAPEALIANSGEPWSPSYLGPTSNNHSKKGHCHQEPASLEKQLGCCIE

[9] = molecular target: T6, HCRTR2 (UniProt O43614 1-444)
T6 sequence (looked up): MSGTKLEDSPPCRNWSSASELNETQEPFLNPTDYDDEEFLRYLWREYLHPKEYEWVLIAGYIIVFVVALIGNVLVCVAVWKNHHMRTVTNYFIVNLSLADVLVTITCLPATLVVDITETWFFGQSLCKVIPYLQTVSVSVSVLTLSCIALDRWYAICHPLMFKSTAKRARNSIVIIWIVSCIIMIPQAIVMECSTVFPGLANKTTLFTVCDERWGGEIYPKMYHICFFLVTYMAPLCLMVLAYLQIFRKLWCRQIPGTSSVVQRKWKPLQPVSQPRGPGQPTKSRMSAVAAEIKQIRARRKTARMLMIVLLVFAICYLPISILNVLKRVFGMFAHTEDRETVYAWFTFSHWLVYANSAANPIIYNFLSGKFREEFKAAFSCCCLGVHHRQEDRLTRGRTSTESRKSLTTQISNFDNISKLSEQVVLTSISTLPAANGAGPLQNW

For QATVGDVNTDRPGLLDLK (also: synthesised on Rink amide resin, C-terminal amide not given here outright) [octadecaneuropeptide (ODN)], the “% Activity, arrestin, antagonist mode, 2.5 uM” value (“% Activity, arrestin” for short) [1] was -8.5%, the “% Activity, arrestin” value [2] was 12.9% and the “% Activity, arrestin” value [3] was 0.5%. For the same binder, the “% Activity, arrestin” value [4] was 3.3%, the “% Activity, arrestin” value [5] was 10.2% and the “% Activity, arrestin” value [6] was -1%. For the same binder, the “% Activity, arrestin” value [7] was -22.5%, the “% Activity, arrestin” value [8] was -17% and the “% Activity, arrestin” value [9] was -2.7%.
